The target in the assay is Ramos (human) (UniProt P11836). Kind of assay: FACS binding; Ramos cells. A general note: A flow cytometer gives signals particle by particle.
Ramos (human), sequence (P11836 whole entry): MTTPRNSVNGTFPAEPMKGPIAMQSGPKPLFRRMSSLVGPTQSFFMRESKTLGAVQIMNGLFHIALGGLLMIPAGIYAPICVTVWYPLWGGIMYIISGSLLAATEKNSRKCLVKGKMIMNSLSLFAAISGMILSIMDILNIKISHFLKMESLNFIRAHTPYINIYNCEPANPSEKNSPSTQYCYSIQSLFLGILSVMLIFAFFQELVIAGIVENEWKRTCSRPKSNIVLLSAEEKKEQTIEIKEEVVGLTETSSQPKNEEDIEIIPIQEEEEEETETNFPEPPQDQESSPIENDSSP

The term EC50 denotes the concentration giving half of the maximal effect. For the substance Rituxan-GlcNAc, the EC50 was found to be 1.54 µg/mL.

Turning to Rituxan-SCT, the EC50 was 1.2 µg/mL.

The values above are taken from patent publication US20160280794A1.
